Patent US11998613B2, “Antibody-drug conjugates containing an anti-mesothelin antibody and uses thereof” (DEVELOPMENT CENTER FOR BIOTECHNOLOGY, priority 2020, dated 2024)

Assays:
[1] = test system: OVCAR-3 human ovarian cancer xenograft; test: OVCAR-3 xenograft model (Example 47); type: in vivo, female NOD SCID mice; conditions: for tumor growth / anti-tumor activity: TGI≥58% considered significant
Protocol: (§1) Five mice were housed in each cage.
(§2) OVCAR-3 cells were subcutaneously (SC) implanted (1×10^7 cells in 1:1 PBS/matrigel mixture at 0.2 mL per mouse) into the right flank of female NOD SCID mice. […] Each of the vehicle, DCBPR2002-4(DBCO-vc-MMAE) (5 and 15 mg/kg), and DCBPR2002-TM (15 mg/kg) was intravenously administered once weekly for 3 weeks.
(§3) Differences are considered significant at *P<0.05.

[2] = test system: Ovarian carcinoma cell line OVCAR-3 (MSLN+); test: In vitro cytotoxicity, CellTiter-Glo luminescent cell viability assay, OVCAR-3; type: cell-based, human; conditions: OVCAR-3, 72 hours treatment; read-out: Relative IC50 (nM of toxic payload/ADCs)
Protocol: The KLM-1 & OVCAR-3 cell lines were maintained in an atmosphere of 5% CO2 in a humidified 37° C. incubator. The day before treatment, cells were collected and seeded into 96-well plates (4,000 cells per well). On the second day, cells were treated with 3-fold serial dilution concentration of toxic payloads and ADCs. Each treatment was performed in eight triplicate data points. After the treatment of 72 hours, cell viability was assessed by CellTiter-Glo® kit (Promega) according to the manufacturer's instruction. At the end of the incubation, luminescence was measured using a SpectraMax i3x Multi Mode Detection Platform (Molecular Devices). Compound cytotoxicity was evaluated in comparison to cells treated with 0.05% PBS (ADCs) or 0.05% DMSO (toxic payload). IC50 values were calculated by fitting viability data with a four-parameter logistic equation using GraphPad prism 5.0 software.

[3] = test system: KLM-1 human pancreatic cancer xenograft; test: KLM-1 xenograft model (Example 45); conditions: 15 mg/kg IV once weekly for 3 weeks
Protocol: Formulations respectively comprising test article DCBPR2002-4(DBCO-vc-MMAE)(15 mg/kg), test article DCBPR2002-4(DBCO-vc-seco-DUBA)(15 mg/kg), test article DCBPR2002-4(DBCO-s-DM1) (15 mg/kg), test article DCBPR2002-2(DBCO-vc-MMAE)-2(DBCO-vc-seco-DUBA) (15 mg/kg), test article DCBPR2002-2(DBCO-vc-MMAE)-2(DBCO-s-DM1) (15 mg/kg), test article DCBPR2002-2(DBCO-vc-seco-DUBA)-2(DBCO-s-DM1) (15 mg/kg), and a corresponding vehicle were formulated by diluting the stock with a 25 mM sodium citrate buffer (pH6.5). Each of the formulations was administered intravenously (IV) once weekly for three weeks.
The KLM-1 cells were maintained in vitro as a monolayer culture in RPMI-1640 medium supplemented with 10% fetal bovine serum at 37° C. in an atmosphere of 5% CO2 in air. The tumor cells were routinely sub-cultured twice weekly by trypsin-EDTA treatment. The cells growing in an exponential growth phase were harvested and counted for tumor inoculation.
Male NOD SCID mice at age of 6-7 weeks were purchased from BioLasco Taiwan Co., LTD. and quarantined for one week. Five mice were housed in each cage. All animals were hosted in the animal facility with a 12-h light/12-h dark cycle at 19-25° C. Animals had free access to rodent pellet foods and water ad libitum.
KLM-1 cells were subcutaneously (SC) implanted (4×10^6 cells in 1:1 PBS/matrigel mixture at 0.1 mL per mouse) into the right flank of male NOD SCID mice. When the average tumor volume had reached 300 mm^3, the mice were randomly divided into 7 groups (N=6 per group). Each of the vehicle, DCBPR2002-4(DBCO-vc-MMAE), DCBPR2002-4(DBCO-vc-seco-DUBA), DCBPR2002-4(DBCO-s-DM1), DCBPR2002-2(DBCO-vc-MMAE)-2(DBCO-vc-seco-DUBA), DCBPR2002-2(DBCO-vc-MMAE)-2(DBCO-s-DM1), DCBPR2002-2(DBCO-vc-seco-DUBA)-2(DBCO-s-DM1) was intravenously administered as 15 mg/kg once weekly for 3 weeks.
The tumor volumes, body weights, mortality, and signs of overt toxicity were monitored and recorded three times weekly for 28 days. Tumor volumes were measured three times per week using calipers and calculated according to the formula: Tumor Volume=(w2×l)/2, where w=width and l=length in diameter (mm) of the tumor. […] One-way ANOVA followed by Dunnett's test was applied for comparison between the vehicle and test article-treated groups. Differences are considered significant at *P<0.05. Animals were weighed three times weekly until the completion of the study.

[4] = In vivo PK in rats, MSD ECL total and conjugated antibody assays; conditions: for AUC(0−last) / AUC(0−∞) / C0 / CL / MRT / Vss / t1/2: 5 mg/kg via the tail vein, serum
Text: This study used Meso Scale Discovery (MSD) Electrochemiluminescent (ECL) method to conduct the pharmacokinetic analysis of DCBPR2002-4(DBCO-vc-MMAE) in BALB/c mice and rat samples. The MSD assay can measure both conjugated and unconjugated antibodies. As illustrated in this example, or total antibody assay the plate is coated with goat anti-human IgG, which can capture all humanized antibodies (conjugated and unconjugated). For the conjugated antibody assay, the plate is coated with an antibody against the payload (drug), such as anti-MMAE antibody.
The in vivo pharmacokinetic study was designed for the comparison the linker-payload stability of trimannosyl-conjugated and cysteine-conjugated synthesis ADC (Adcetris). The rats were administered DCBPR2002-4(DBCO-vc-MMAE) and Adcetris at a dose level of 5 mg/kg via the tail vein. Serum samples were then obtained at different time points for determination of the concentrations of DCBPR2002-4(DBCO-vc-MMAE) and Adcetris in rats by MESO QuickPlex SQ 120 method. The pharmacokinetic parameters of DCBPR2002-4(DBCO-vc-MMAE) and Adcetris were analyzed by noncompartmental analysis using Phoenix™ for WinNonlin Program, version 6.3.

[5] = test system: OVCAR-3 human ovarian cancer xenograft; test: OVCAR-3 xenograft model (Example 46); type: in vivo, female NOD SCID mice
Protocol: as §1
as §2, with “DCBPR2002-4(DBCO-vc-MMAE) (15” for “DCBPR2002-4(DBCO-vc-MMAE) (5”, “and 30” for “and 15”, “and DCBPR2002-4(DBCO-vc-seco-DUBA)” for “and DCBPR2002-TM”
as §3

[6] = 5 mg/kg IV once weekly for 3 weeks
[7] = 15 mg/kg IV once weekly for 3 weeks

B1: DCBPR2002-4(DBCO-vc-MMAE): DCBPR2002-4Az reacted with DBCO-vc-MMAE; trimannosyl-conjugated ADC, DAR 3.89 (conjugate)
VH: QVQLVQSGAEVKKPGASVKVSCKASGYSFTGYTMNWVRQAPGQGLEWMGLITPYNGASSYNQKFRGRVTMTRDTSISTAYMELSRLRSDDTAVYYCARGGYDGRGFDYWGQGTLVTVSS
VL: EIVLTQSPATLSLSPGERATLSCSASSSVSYMHWYQQKPGQAPRLLIYDTSKLASGIPARFSGSGSGTDFTLTISSLEPEDFAVYYCQQWSKHPLTFGQGTKVEIKR
body weight changes [1, 6]: No body weight loss was observed | tumor growth / anti-tumor activity [1, 6]: significantly reduced OVCAR-3 tumor growth | body weight changes [1, 7]: No body weight loss was observed | tumor growth / anti-tumor activity [1, 7]: significantly reduced OVCAR-3 tumor growth | IC50 [2]: 1 nM | body weight changes [3]: No body weight loss was observed | ranking of efficacy potency [3]: DCBPR2002-4(DBCO-vc-seco-DUBA)=DCBPR2002-2(DBCO-vc-MMAE)-2(DBCO-vc-seco-DUBA)=DCBPR2002-2(DBCO-vc-seco-DUBA)-2(DBCO-s-DM1)>DCBPR2002-4(DBCO-vc-MMAE)>DCBPR2002-2(DBCO-vc-MMAE)-2(DBCO-s-DM1)>DCBPR2002-4(DBCO-s-DM1) | AUC(0−last) ([4]; Conjugated antibody): 2334.505 µg·h/mL | AUC(0−∞) ([4]; Conjugated antibody): 2400.45 µg·h/mL | C0 ([4]; Conjugated antibody): 80.955 µg/mL | CL ([4]; Conjugated antibody): 2.1 mL/h/kg | MRT ([4]; Conjugated antibody): 85.6 h | Vss ([4]; Conjugated antibody): 0.179 L/kg | t1/2 ([4]; Conjugated antibody): 148 ± 8.14 h | AUC(0−last) ([4]; Total antibody): 4013.185 µg·h/mL | AUC(0−∞) ([4]; Total antibody): 4363.325 µg·h/mL | C0 ([4]; Total antibody): 94.121 µg/mL | CL ([4]; Total antibody): 1.14 mL/h/kg | MRT ([4]; Total antibody): 160 h | Vss ([4]; Total antibody): 0.183 L/kg | t1/2 ([4]; Total antibody): 194 ± 35.0 h | difference between the curve of total antibody and conjugated antibody (stability of the conjugated linker-payload) ([4]; 5 mg/kg, compared with Adcetris): closed on DCBPR2002-4(DBCO-vc-MMAE) than that of Adcetris | body weight changes [5, 7]: No body weight loss was observed | body weight changes ([5]; 30 mg/kg IV once weekly for 3 weeks): No body weight loss was observed
